Consider two proteins from paper PMC6479881, “Structural Comparison of Enterococcus faecalis and Human Thymidylate Synthase Complexes with the Substrate dUMP and Its Analogue FdUMP Provides Hints about Enzyme Conformational Variabilities” (Molecules, 2019).

Data set [1] concerns the molecule itself. Kind of data set: crystal structure; hTS 20 mg/mL in 50 mM HEPES pH 7.5, 30 mM NaCl, 20 mM beta-mercaptoethanol, with 40 mM dUMP or 2 mM FdUMP; precipitant 27-30 % PEG4000, 30 mM ammonium sulfate, 0.1 M TRIS pH 9; room temperature; space groups C2 or I2, one and half dimer in the ASU.
Data set [2] deals with the molecule itself. Kind of data set: crystal structure; EfTS 7 mg/mL in 25 mM phosphate buffer pH 6.8, 2 mM DTT, with 100 mM dUMP or 4 mM FdUMP; precipitant 2.2-2.5 M ammonium sulfate, 0.1 M HEPES pH 7.5; room temperature; space group P21, two enzyme dimers in the ASU.

B1: human thymidylate synthase (enzyme)
chain: MPVAGSELPRRPLPPAAQERDAEPRPPHGELQYLGQIQHILRCGVRKDDRTGTGTLSVFGMQARYSLRDEFPLLTTKRVFWKGVLEELLWFIKGSTNAKELSSKGVKIWDANGSRDFLDSLGFSTREEGDLGPVYGFQWRHFGAEYRDMESDYSGQGVDQLQRVIDTIKTNPDDRRIIMCAWNPRDLPLMALPPCHALCQFYVVNSELSCQLYQRSGDMGLGVPFNIASYALLTYMIAHITGLKPGDFIHTLGDAHIYLNHIEPLKIQLQREPRPFPKLRILRKVEKIDDFKAEDFQIEGYNPHPTIKMEMAV
notes: Thymidylate synthase (EC 2.1.1.45), human, wild type; expressed from pQE-80L with a not-cleavable N-terminal His6-tag (twelve tag residues); the first twenty-five N-terminal residues and the tag were not traced in the structures; also called hTS; Human TS; source: E. coli BL21(DE3), purified (HisTrap HP); not shown: His6, N-terminal, kept
Consider B1, for which the binding result in data set [1] is given as “binds”.

B2: Enterococcus faecalis thymidylate synthase (enzyme)
chain: MEEAYLALGKKILEEGHFKEDRTGTGTYSLFGYQMRFDLAKGFPLLTTKRVPFGLIKSELLWFLKGDTNIRYLLERNNHIWDEWAFERYVKSADYQGPDMTDFGHRVLQDPAFAEQYKEEHQKFCDAILNDAEFAEKYGELGNIYGAQWRHWETKDGSFIDQLANVIEMIKTNPDSRRLIVSAWNPEDVPSMALPPCHTMFQFYVNEGKLSCQLYQRSADVFLGVPFNIASYALLTHLIAHETGLEVGEFVHTLGDAHLYQNHVEQMQEQLSREVRSFPTLVLNPDKASVFDFDMEDIKVEGYDPHPTIKAPIAV
modifications: dUMP complex: Cys197 as S,S-(2-hydroxylethyl)thiocysteine (CME197) in subunits B and D, oxidized to sulfenic acid (S-oxycysteine, CSX197) in subunits A and C; FdUMP complex: Cys197 thiol reactive
notes: Thymidylate synthase (EC 2.1.1.45) of Enterococcus faecalis; The homodimer is asymmetric: 5-FTHF copurifies in one active site of each dimer; also called EfTS; TS; source: prepared according to an established procedure [5]; purified
Turning to B2, the binding result in data set [2] is reported as “binds”.
